{
  "source": "paper PMC11445749",
  "about": "“Structural bases for blockade and activation of BK channels by Ba^2+ ions” (Frontiers in Molecular Biosciences, 2024)",
  "proteins": {"B1": {"name": "Aplysia californica Slo1 BK channel (natural protein)", "chain": "not shown", "notes": "Homotetramer in lipid nanodiscs (scaffold MSP1E3D1); also called Aplysia Slo1; Aplysia BK channel; not shown: GFP, C-terminal, cleaved; rho-1D4, C-terminal, cleaved"}},
  "target": "the molecule itself",
  "test": "cryo-EM structure; Slo1 tetramers in lipid nanodiscs (MSP1E3D1); two samples: Low-Barium (~1.4 mM Ba2+, PDB 7RK6) and High-Barium (10 mM Ba2+ throughout purification, PDB 7RJT); Titan Krios, K2 detector",
  "data": [
    {"protein": "B1", "values": [
      {"measurement": "stoichiometry N", "value": 4}
    ]}
  ]
}
